# Test results as given in publication PMC12583610, “Allosteric control of the bacterial ClpC/ClpP protease and its hijacking by antibacterial peptides” (The EMBO Journal, 2025).
# Tests used:
# Mtb ClpC1 = Mtb ClpC1 (Mycobacterium tuberculosis, UniProt P9WPC9)
# [1] = target: Staphylococcus aureus ClpC wild-type (Staphylococcus aureus) (UniProt Q2G0P5); experiment: cross-linking
# [2] = target: Staphylococcus aureus ClpC wild-type (Staphylococcus aureus) (UniProt Q2G0P5); experiment: mass photometry
# [3] = target: Staphylococcus aureus ClpC-F436A (Staphylococcus aureus) (UniProt Q2G0P5); experiment: cross-linking
# [4] = target: Staphylococcus aureus ClpC-F436A (Staphylococcus aureus) (UniProt Q2G0P5); experiment: dynamic light scattering
# [5] = target: T1, Staphylococcus aureus ClpP (Staphylococcus aureus), Q2G036; experiment: negative stain EM; conditions: remark: other sources report otherwise
# T1 chain: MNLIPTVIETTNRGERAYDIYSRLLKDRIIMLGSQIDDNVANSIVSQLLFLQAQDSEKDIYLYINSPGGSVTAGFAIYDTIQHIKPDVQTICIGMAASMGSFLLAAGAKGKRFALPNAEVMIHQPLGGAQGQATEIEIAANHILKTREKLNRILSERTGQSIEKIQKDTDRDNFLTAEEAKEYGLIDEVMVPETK
molecule,measurement,setting,value
Nc1ncnc2c1ncn2[C@@H]1O[C@H](COP(=O)(O)OP(=O)(O)OP(=O)(O)O)[C@@H](O)[C@H]1O [ATP],coupled PK/LDH NADH ATPase assay,Mtb ClpC1,ATPase activities of Mtb ClpC1-WT and indicated mutants were determined
Staphylococcus aureus ClpC wild-type (from UniProt Q2G0P5) (natural protein),stoichiometry N,[1],6
same,stoichiometry N,[2],2
Staphylococcus aureus ClpC-F436A (from UniProt Q2G0P5) (natural protein),stoichiometry N,[3],6
same,stoichiometry N,[4],6
"Staphylococcus aureus ClpP, Q2G036 1-195 (enzyme) MNLIPTVIETTNRGERAYDIYSRLLKDRIIMLGSQIDDNVANSIVSQLLFLQAQDSEKDIYLYINSPGGSVTAGFAIYDTIQHIKPDVQTICIGMAASMGSFLLAAGAKGKRFALPNAEVMIHQPLGGAQGQATEIEIAANHILKTREKLNRILSERTGQSIEKIQKDTDRDNFLTAEEAKEYGLIDEVMVPETK",stoichiometry N,[5],14
